Our source for the Kd values is paper PMC12098869, “An mRNA-display derived cyclic peptide scaffold reveals the substrate binding interactions of an N-terminal cysteine oxidase” (Nature Communications, 2025).

Values joined by “and” are separate entries in the source; they are usually repeats but may differ in a detail not shown here. Identical values can stand only once.

As a reminder, the Kd is the concentration at which binding is half-saturated. Read a low Kd as tighter binding.

In this experiment the target is T1, ADO-F256A, N-terminally His-tagged and biotinylated (human, UniProt Q96SZ5 1-270, F256A, biotin (biotinylated during expression)).
T1 construct: 2-aminoethanethiol dioxygenase (ADO), human, UniProt Q96SZ5, full length, site-directed mutant; source: E. coli Rosetta2(DE3), purified (Ni-NTA, SEC); not shown: biotinylation tag (from the vector pQE80L-Navi), N-terminal, kept
T1 sequence (looked up): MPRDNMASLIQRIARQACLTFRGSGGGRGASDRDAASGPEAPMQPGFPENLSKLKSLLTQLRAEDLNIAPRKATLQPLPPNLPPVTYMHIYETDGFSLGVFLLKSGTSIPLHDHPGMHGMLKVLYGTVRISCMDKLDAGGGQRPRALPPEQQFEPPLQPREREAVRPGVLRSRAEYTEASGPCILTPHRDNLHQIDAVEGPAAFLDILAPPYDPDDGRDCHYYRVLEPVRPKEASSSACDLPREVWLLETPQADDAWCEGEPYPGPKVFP
The experiment in a line: SPR; biotinylated ADO or ADO mutant immobilised on a Biotin CAP chip (~2500-3000 RU), substrate peptide injected; Biacore T200, 4 °C; 20 mM HEPES pH 7.5, 500 mM NaCl, 10 mM DTT, 0.1% tween-20; 50 µL/minute; multi-cycle or single-cycle mode not given; each cell is one of three independent measurements. To be noted: both partners purified. A general note: Surface plasmon resonance follows binding to a sensor surface in real time, without labels.

B1: IL32(2-15), synthetic peptide corresponding to the methionine excised N-terminus of IL32, residues 2-15 (peptide, UniProt P24001 2-15, looked up)
peptide: CFPKVLSDDMKKLK
notes: interleukin 32 (IL32), residues 2-15 (N-terminal Cys exposed); also called 14-mer IL32; source: synthetic peptide
Regarding B1, the dissociation constant (Kd) is 751 nM and 900 nM and 973 nM.
